Laboratory results reported in the supplement of paper PMC9112550, “Optimization of the antimicrobial peptide Bac7 by deep mutational scanning” (BMC Biology, 2022).
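Note: peptides expressed intracellularly from a pBAD plasmid library in pooled LB shake-flask culture, induced with 0.3% L-arabinose, DNA abundance read by NGS, three biological replicates, DESeq2 with apeglm shrinkage.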

Each sequence was assayed on Escherichia coli TOP10 (assay: shrunken log2 fold change of peptide-encoding DNA abundance (4.5 h post-induction vs induction); higher = less antimicrobial activity (less host growth inhibition)). Details: time post-induction: 4.5 h; library: site-saturation at positions 5, 18, 19, 20.
RRIRGRPPRLPRPRPRPPRQPRP was tested, and the “shrunken log2 fold change” value was 1.27. In the case of RRIRNRPPRLPRPRPRPANNPRP, the “shrunken log2 fold change” value was -0.0944. RRIRHRPPRLPRPRPRPKVSPRP was tested, and the “shrunken log2 fold change” value was -0.112. RRIRSRPPRLPRPRPRPTSHPRP was tested, and the “shrunken log2 fold change” value was -0.0965. In the case of RRIRQRPPRLPRPRPRPVFQPRP, the “shrunken log2 fold change” value was 0.0308. In the case of RRIRHRPPRLPRPRPRPAQVPRP, the “shrunken log2 fold change” value was -0.0333. In the case of RRIRHRPPRLPRPRPRPLTEPRP, the “shrunken log2 fold change” value was -0.342. With RRIRSRPPRLPRPRPRPTFIPRP the “shrunken log2 fold change” value was -0.173. With RRIRYRPPRLPRPRPRPNNVPRP the “shrunken log2 fold change” value was -0.323. In the case of RRIRDRPPRLPRPRPRPAETPRP, the “shrunken log2 fold change” value was 0.0806. For RRIRIRPPRLPRPRPRPWLWPRP, the “shrunken log2 fold change” value was -0.0533. For RRIRGRPPRLPRPRPRPGATPRP, the “shrunken log2 fold change” value was 1.39. For RRIRSRPPRLPRPRPRPTVGPRP, the “shrunken log2 fold change” value was 0.187. In the case of RRIRPRPPRLPRPRPRPEQLPRP, the “shrunken log2 fold change” value was 0.0838. In the case of RRIRMRPPRLPRPRPRPAHHPRP, the “shrunken log2 fold change” value was 0.0701. RRIRLRPPRLPRPRPRPVGRPRP was tested, and the “shrunken log2 fold change” value was 0.215. RRIRKRPPRLPRPRPRPNGRPRP was tested, and the “shrunken log2 fold change” value was 0.131. With RRIRSRPPRLPRPRPRPAQYPRP the “shrunken log2 fold change” value was 0.0401. For RRIRSRPPRLPRPRPRPYCLPRP, the “shrunken log2 fold change” value was -0.434. RRIRIRPPRLPRPRPRPKAAPRP was tested, and the “shrunken log2 fold change” value was 0.147. For RRIRRRPPRLPRPRPRPNVQPRP, the “shrunken log2 fold change” value was 0.0253. For RRIRMRPPRLPRPRPRPVDLPRP, the “shrunken log2 fold change” value was 0.405. With RRIRPRPPRLPRPRPRPFNHPRP the “shrunken log2 fold change” value was -0.304. RRIRGRPPRLPRPRPRPAWNPRP was tested, and the “shrunken log2 fold change” value was 0.378. For RRIRIRPPRLPRPRPRPGCRPRP, the “shrunken log2 fold change” value was 0.0314. With RRIRERPPRLPRPRPRPCPFPRP the “shrunken log2 fold change” value was -1.04. With RRIRTRPPRLPRPRPRPVGAPRP the “shrunken log2 fold change” value was 0.327. With RRIRHRPPRLPRPRPRPPKVPRP the “shrunken log2 fold change” value was 0.0708. For RRIRPRPPRLPRPRPRPQKIPRP, the “shrunken log2 fold change” value was -0.267. In the case of RRIRKRPPRLPRPRPRPDWYPRP, the “shrunken log2 fold change” value was -0.149. For RRIRVRPPRLPRPRPRPTTNPRP, the “shrunken log2 fold change” value was 0.0416. RRIRYRPPRLPRPRPRPGIYPRP was tested, and the “shrunken log2 fold change” value was -0.288. RRIRIRPPRLPRPRPRPHPGPRP was tested, and the “shrunken log2 fold change” value was -0.571. RRIRMRPPRLPRPRPRPCQIPRP was tested, and the “shrunken log2 fold change” value was -0.0194. With RRIRSRPPRLPRPRPRPMDQPRP the “shrunken log2 fold change” value was 0.362. RRIRLRPPRLPRPRPRPEANPRP was tested, and the “shrunken log2 fold change” value was 0.075. In the case of RRIRSRPPRLPRPRPRPPANPRP, the “shrunken log2 fold change” value was 0.283. For RRIRERPPRLPRPRPRPVHQPRP, the “shrunken log2 fold change” value was 0.107. In the case of RRIRHRPPRLPRPRPRPPYMPRP, the “shrunken log2 fold change” value was -0.539. For RRIRFRPPRLPRPRPRPCCPPRP, the “shrunken log2 fold change” value was -0.468. In the case of RRIRYRPPRLPRPRPRPAQPPRP, the “shrunken log2 fold change” value was -0.0284. With RRIRGRPPRLPRPRPRPMYMPRP the “shrunken log2 fold change” value was -0.169. In the case of RRIRLRPPRLPRPRPRPKPGPRP, the “shrunken log2 fold change” value was 0.396. In the case of RRIRCRPPRLPRPRPRPRSVPRP, the “shrunken log2 fold change” value was 0.318. RRIRYRPPRLPRPRPRPVAMPRP was tested, and the “shrunken log2 fold change” value was -0.464. RRIRWRPPRLPRPRPRPMLWPRP was tested, and the “shrunken log2 fold change” value was 0.0929. RRIRLRPPRLPRPRPRPLAFPRP was tested, and the “shrunken log2 fold change” value was -0.092. In the case of RRIRERPPRLPRPRPRPSSIPRP, the “shrunken log2 fold change” value was -0.855. For RRIRWRPPRLPRPRPRPHYLPRP, the “shrunken log2 fold change” value was -0.106. With RRIRDRPPRLPRPRPRPRIIPRP the “shrunken log2 fold change” value was -0.00686. In the case of RRIRERPPRLPRPRPRPQMLPRP, the “shrunken log2 fold change” value was -0.0206. With RRIRVRPPRLPRPRPRPTPRPRP the “shrunken log2 fold change” value was 0.859. For RRIRARPPRLPRPRPRPRMYPRP, the “shrunken log2 fold change” value was 0.0922. In the case of RRIRYRPPRLPRPRPRPVLGPRP, the “shrunken log2 fold change” value was 0.0727. For RRIRWRPPRLPRPRPRPMHFPRP, the “shrunken log2 fold change” value was -0.00884. RRIRGRPPRLPRPRPRPIFMPRP was tested, and the “shrunken log2 fold change” value was 0.283. With RRIRSRPPRLPRPRPRPFYEPRP the “shrunken log2 fold change” value was -0.165. RRIRARPPRLPRPRPRPQYLPRP was tested, and the “shrunken log2 fold change” value was -0.204. In the case of RRIRRRPPRLPRPRPRPPYPPRP, the “shrunken log2 fold change” value was 0.245. With RRIRYRPPRLPRPRPRPVWGPRP the “shrunken log2 fold change” value was 0.432. In the case of RRIRTRPPRLPRPRPRPNEHPRP, the “shrunken log2 fold change” value was -0.198. RRIRQRPPRLPRPRPRPQTNPRP was tested, and the “shrunken log2 fold change” value was -0.736. In the case of RRIRIRPPRLPRPRPRPKKDPRP, the “shrunken log2 fold change” value was -0.602. With RRIRARPPRLPRPRPRPCIPPRP the “shrunken log2 fold change” value was 2.51. RRIRYRPPRLPRPRPRPDMEPRP was tested, and the “shrunken log2 fold change” value was -0.0135. In the case of RRIRHRPPRLPRPRPRPDLQPRP, the “shrunken log2 fold change” value was -0.15. For RRIRKRPPRLPRPRPRPAGTPRP, the “shrunken log2 fold change” value was 0.992. For RRIRGRPPRLPRPRPRPSRKPRP, the “shrunken log2 fold change” value was 0.293. With RRIRKRPPRLPRPRPRPKISPRP the “shrunken log2 fold change” value was -0.0246. With RRIRNRPPRLPRPRPRPFYMPRP the “shrunken log2 fold change” value was -0.18. With RRIRIRPPRLPRPRPRPYDEPRP the “shrunken log2 fold change” value was -0.338. In the case of RRIRNRPPRLPRPRPRPSVQPRP, the “shrunken log2 fold change” value was -0.0954. RRIRYRPPRLPRPRPRPTCCPRP was tested, and the “shrunken log2 fold change” value was -0.194. With RRIRVRPPRLPRPRPRPQQIPRP the “shrunken log2 fold change” value was -0.119. With RRIRIRPPRLPRPRPRPEAVPRP the “shrunken log2 fold change” value was 0.0843.
